By EC50 is commonly meant the concentration giving half of the maximal effect. A word on the IC50: it is the midpoint of a concentration-inhibition curve.

For 22 molecules, EC50 and IC50 results are on record in patent US20240309093A1 (MINGHUI PHARMACEUTICAL HANGZHOU, published 2024).

Where two headings read alike, the source gives them in different places.

Assay [1] deals with T1, recombinant human PD-1-his protein (human, UniProt Q15116 25-167).
T1 construct: also called hPD-1-his; not shown: his tag
T1 sequence (Q15116 25-167 limits assumed): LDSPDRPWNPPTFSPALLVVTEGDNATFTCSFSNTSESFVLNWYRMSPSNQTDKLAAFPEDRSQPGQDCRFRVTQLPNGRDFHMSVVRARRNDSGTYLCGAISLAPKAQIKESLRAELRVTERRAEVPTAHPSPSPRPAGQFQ
Put plainly: ELISA (first round of humanization); PD-1-his coated 2 µg/mL, anti-human IgG Fc-HRP. The method, then: 96-well ELISA plates were coated with 2 μg/mL of recombinant human PD-1-his antigen protein at 30 μL/well at 4° C. overnight. The plates were washed three times with PBST. 5% PBS-Milk was added and incubated at room temperature for 2 h. The plates were washed three times with PBST. All the nanobody-Fc fusion proteins were subject to 3-fold gradient dilutions with an initial concentration of 10 μg/mL, added into each well at 30 μL/well, and incubated at room temperature for 1 hr. The plates were washed three times with PBST. The secondary antibody Goat-Anti-Human-IgG-Fc-HRP (purchased from Sigma) was diluted at 1:8000, added into each well at 30 μL/well, and incubated at room temperature for 50 min. The plates were washed three times with PBST. TMB (purchased from SurModics) was added into each well at 30 μL/well and developed at room temperature in dark for 1 min to 5 min. 2 M hydrochloric acid was added at 30 μL/well to stop the reaction. The OD450 absorbance value was read by a microplate reader.
For orientation: An ELISA detects its analyte on a solid surface through an enzyme-linked reagent.

The target of assay [2] is T1, recombinant human PD-1-his protein. Description: ELISA; PD-1-his coated 2 µg/mL, anti-human IgG Fc-HRP. Here is the method: (§1) The plates were washed three times with PBST. 5% PBS-Milk and incubated at room temperature for 2 h. The plates were washed three times with PBST. All the nanobody-Fc fusion proteins were subject to 3-folded gradient dilution with an initial concentration of 10 μg/mL, added into each well at 30 μL/well, and incubated at room temperature for 1 hr. The plates were washed three times with PBST. The secondary antibody Goat-Anti-Human-IgG-Fc-HRP was diluted at 1:8000, added into each well at 30 μL/well, and incubated at room temperature for 50 min. The plates were washed nine times with PBST. TMB was added into each well at 30 μL/well and developed at room temperature in dark for 1 min to 5 min. 2 M hydrochloric acid was added at 30 μL/well to stop the reaction. The OD450 absorbance value was read by a microplate reader. Graphpad Prism software was used to fit the curve and calculate EC₅₀ values.

In assay [3] the target is T2, recombinant human PD-1-Fc-Biotin (human, UniProt Q15116 25-167, biotin (site not stated)).
T2 construct: also called antigen protein human PD-1; not shown: Fc
T2 sequence (Q15116 25-167 limits assumed): as above
Put plainly: competitive ELISA; PD-L1-mFc coated, 0.5 µg/mL PD-1-Fc-Biotin, streptavidin-HRP. The method, then:
The plates were washed three times with PBST. 5% PBS-Milk was added and incubated at room temperature for 1 hr. All the nanobody-Fc fusion proteins were subject to 3-fold gradient dilutions with an initial concentration of 10 μg/mL, added into each well at 30 μL/well, and incubated at room temperature for 1 hr. […] The plates were washed with PBST between incubations.

Assay [4] has as its target T1, recombinant human PD-1-his protein. Put plainly: ELISA; PD-1-his coated 2 µg/mL, anti-human IgG Fc-HRP. Here is the method: as §1, with “PBS-Milk was added” for “PBS-Milk”, “3-fold” for “3-folded”, “dilutions” for “dilution”, “calculate the” for “calculate”, “value (see Table 7).” for “values.”
The source holds these as a separate data set.

The target in assay [5] is T2, recombinant human PD-1-Fc-Biotin. Description: competitive ELISA; PD-L1-mFc coated, 0.5 µg/mL PD-1-Fc-Biotin, streptavidin-HRP. The method, then: The plates were washed three times with PBST. 5% PBS-Milk was added and incubated at room temperature for 1 hr. All the nanobody-Fc fusion proteins were subject to 3-fold gradient dilutions with an initial concentration of 10 μg/mL, added into each well at 30 μL/well, and incubated at room temperature for 1 hr. […] The well plates were washed with PBST between incubations.
The source holds these as a separate data set.

B1: MHPD1-A-H1 Fc (Fc fusion, not shown: a dimerising Fc or GST; small tags and cut ends)
VHH: QVQLVESGGGSVQPGGSLTLSCAASGSDPSIYAMGWFRQAPGKEHEFVAGIGWSAATTYYADSVKGRFGISRDNTKNTVALLMNSLKPEDTAIYYCAADLDHSGFDYWGQGTLVTVSS
notes: First round of humanization of MHPD1-A; also called humanized nanobody-Fc fusion protein
On to B1, for which, in assay [1], the EC50 amounted to 0.24 µg/mL.

B2: MHPD1-A-H10 Fc (Fc fusion, not shown: a dimerising Fc or GST; small tags and cut ends)
VHH: QVQLVESGGGSVQPGGSLRLSCAASGSDPSIYAMGWFRQAPGKEHEFVAGIGWSAATTYYADSVKGRFTISRDNTKNTLALLMNSLKPEDTAIYYCAADLDHSGFDYWGQGTLVTVSS
notes: as for B1
With B2, in assay [1], the EC50 was 0.32 µg/mL.

B3: MHPD1-A-H7 Fc (Fc fusion, not shown: a dimerising Fc or GST; small tags and cut ends)
VHH: QVQLVESGGGSVQVGGSLTLSCAASGSDPSIYAMMWFRQAPGKEHEFVAGIGWSAATTYYADSVKGRFGISRDNSKNTVALLMNSLKPEDTAIYYCAADLDHSGFDYWGQGTQVTVSS
notes: as for B1
B3: the EC50 in assay [1] amounted to 2.54 µg/mL.

B4: MHPD1-A-H5 Fc (Fc fusion, not shown: a dimerising Fc or GST; small tags and cut ends)
VHH: QVQLVESGGGSVQVGGSLTLSCAASGSDPSIYAMGWFRQAPGKEHEFVAGIGWSAATTYYADSVKGRFGISRDNTKNTVYLQMNSLKPEDTAIYYCAADLDHSGFDYWGQGTQVTVSS
notes: as for B1
For B4, in assay [1], the EC50 was 0.35 µg/mL.

B5: MHPD1-A-H2 Fc (Fc fusion, not shown: a dimerising Fc or GST; small tags and cut ends)
VHH: QVQLVESGGGSVQVGGSLRLSCAASGSDPSIYAMGWFRQAPGKEHEFVAGIGWSAATTYYADSVKGRFGISRDNTKNTVALLMNSLRAEDTAIYYCAADLDHSGFDYWGQGTQVTVSS
notes: as for B1
As for B5, the EC50 in assay [1] came out at 0.22 µg/mL.

B6: MHPD1-A-H8 Fc (Fc fusion, not shown: a dimerising Fc or GST; small tags and cut ends)
VHH: QVQLVESGGGSVQVGGSLTLSCAASGSDPSIYAMGWFRQAPGKGLEFVAGIGWSAATTYYADSVKGRFGISRDNTKNTVALLMNSLKPEDTAIYYCAADLDHSGFDYWGQGTQVTVSS
notes: as for B1
With B6, in assay [1], the EC50 turned out to be 0.2 µg/mL.

B7: MHPD1-A-H6 Fc (Fc fusion, not shown: a dimerising Fc or GST; small tags and cut ends)
VHH: QVQLVESGGGSVQVGGSLTLSCAASGSDPSIYAMMWFRQAPGKEHEFVAGIGWSAATTYYADSVKGRFGISRDNTKNTVALLMNSLKPEDTAIYYCAADLDHSGFDYWGQGTQVTVSS
notes: as for B1
Take B7: the EC50 in assay [1] was found to be 2.91 µg/mL.

B8: MHPD1-A-H9 Fc (Fc fusion, not shown: a dimerising Fc or GST; small tags and cut ends)
VHH: QVQLVESGGGSVQPGGSLRLSCAASGSDPSIYAMGWFRQAPGKEHEFVAGIGWSAATTYYADSVKGRFGISRDNTKNTVALLMNSLRAEDTAIYYCAADLDHSGFDYWGQGTLVTVSS
notes: also called humanized nanobody-Fc fusion protein
Regarding B8, in assay [1], the EC50 was determined as 0.15 µg/mL.

B9: MHPD1-A-H3 Fc (Fc fusion, not shown: a dimerising Fc or GST; small tags and cut ends)
VHH: QVQLVESGGGSVQVGGSLTLSCAASGSDPSIYAMGWFRQAPGKEHEFVAGIGWSAATTYYADSVKGRFGISRDNTKNTLALLMNSLKPEDTAIYYCAADLDHSGFDYWGQGTQVTVSS
notes: as for B1
On to B9, for which, in assay [1], the EC50 worked out at 0.16 µg/mL.

B10: MHPD1-A-20 H Fc (Fc fusion, not shown: a dimerising Fc or GST; small tags and cut ends)
VHH: QVQLVESGGGLVQPGGSLRLSCATSGSRKSIYAMGWFRQAPGKGLEFVAGIGWAYATTYYADSVKGRFTISRDNTKNTLYLQMNSLRAEDTAVYYCAADLDHSGFDYWGQGTLVTVSS
In the case of B10, in assay [2], the EC50 amounted to 0.175 nM. For the same molecule, the IC50 in assay [3] was 1.21 nM.

B11: MHPD1-A-15 H Fc (Fc fusion)
chain: QVQLVESGGGLVQPGGSLRLSCATSGLRRSIYAMGWFRQAPGKGLEFVAGIGWAYSTTYYADSVKGRFTISRDNTKNTLYLQMNSLRAEDTAVYYCAADLDHSGFDYWGQGTLVTVSS
notes: not shown: Fc
With B11, in assay [2], the EC50 is 0.134 nM. The IC50 in assay [3] was 0.517 nM.

B12: MHPD1-A-39 H Fc (Fc fusion)
chain: QVQLVESGGGLVQPGGSLRLSCATSGSRRSIYAMGWFRQAPGKGLEFVAGIGWAYATEYYADSVKGRFTISRDNTKNTLYLQMNSLRAEDTAVYYCAADLDHSGFDYWGQGTLVTVSS
notes: not shown: Fc
With B12, the EC50 in assay [2] was found to be 0.158 nM. In addition, the IC50 in assay [3] worked out at 0.85 nM.

B13: MHPD1-A-13 H Fc (Fc fusion)
chain: QVQLVESGGGLVQPGGSLRLSCAASHADPSIYAMGWFRQAPGKGLEFVAGIGWNYATTYYADSVKGRFTISRDNTKNTLYLQMNSLRAEDTAVYYCAADLDHSGFDYWGQGTLVTVSS
notes: not shown: Fc
Take B13: the EC50 in assay [4] came out at 0.14 nM. Also, in assay [5], the IC50 worked out at 0.395 nM.

B14: MHPD1-A-37 H Fc (Fc fusion, not shown: a dimerising Fc or GST; small tags and cut ends)
VHH: QVQLVESGGGLVQPGGSLRLSCATSGARRSIYAMGWFRQAPGKGLEFVAGIGWAYATTYYADSVKGRFTISRDNTKNTLYLQMNSLRAEDTAVYYCAADLDRTGFDYWGQGTLVTVSS
For the molecule B14, the EC50 in assay [2] was found to be 0.141 nM. Moreover, the IC50 in assay [3] came out at 1.54 nM.

B15: MHPD1-A-8 H Fc (Fc fusion)
chain: QVQLVESGGGLVQPGGSLRLSCAASGGRPSIYAMGWFRQAPGKGLEFVAGIGWAFATTYYADSVKGRFTISRDNTKNTLYLQMNSLRAEDTAVYYCAADLDHSGFDYWGQGTLVTVSS
notes: not shown: Fc
Consider B15, for which the EC50 in assay [4] stood at 0.169 nM. Also, in assay [5], the half-inhibitory concentration (IC50) was 0.323 nM.

B16: MHPD1-A-14 H Fc (Fc fusion, not shown: a dimerising Fc or GST; small tags and cut ends)
VHH: QVQLVESGGGLVQPGGSLRLSCAASSHRPSIYAMGWFRQAPGKGLEFVAGIGWRYATTYYADSVKGRFTISRDNTKNTLYLQMNSLRAEDTAVYYCAADLDHSGFDYWGQGTLVTVSS
Turning to B16, the EC50 in assay [4] came out at 1.22 nM. In assay [5], the IC50 worked out at 0.852 nM.

B17: MHPD1-A-45 H Fc (Fc fusion)
chain: QVQLVESGGGLVQPGGSLRLSCATSHLRRSIYAMGWFRQAPGKGLEFVAGIGWAYATTYYADSVKGRFTISRDNTKNTLYLQMNSLRAEDTAVYYCAADLDHSGFDYWGQGTLVTVSS
notes: not shown: Fc
As to B17, the EC50 in assay [2] is 0.146 nM. The IC50 in assay [3] was 0.944 nM.

B18: MHPD1-A-23 H Fc (Fc fusion)
VHH: QVQLVESGGGLVQPGGSLRLSCATSGTRRSIYAMGWFRQAPGKGLEFVAGIGWAYATTYYADSVKGRFTISRDNTKNTLYLQMNSLRAEDTAVYYCAADLDHSGFDYWGQGTLVTVSS
notes: not shown: Fc region
Consider B18, for which the EC50 in assay [2] stood at 0.152 nM. Also, in assay [3], the IC50 was 1.2 nM.

B19: MHPD1-A-49 H Fc (Fc fusion, not shown: a dimerising Fc or GST; small tags and cut ends)
VHH: QVQLVESGGGLVQPGGSLRLSCATSGSRRSIYAMGWFRQAPGKGLEFVAGIGWAYATTYYADSVKGRFTISRDNTKNTLYLQMNSLRAEDTAVYYCAADLDRVGFDYWGQGTLVTVSS
As for B19, in assay [2], the EC50 was found to be 0.171 nM. In assay [3], the IC50 amounted to 1.26 nM.

B20: MHPD1-A-21 H Fc (Fc fusion, not shown: a dimerising Fc or GST; small tags and cut ends)
VHH: QVQLVESGGGLVQPGGSLRLSCATSGSRRSIYAMGWFRQAPGKGLEFVAGIGWAYATSYYADSVKGRFTISRDNTKNTLYLQMNSLRAEDTAVYYCAADLDHSGFDYWGQGTLVTVSS
For the molecule B20, the EC50 in assay [2] came to 0.179 nM. The IC50 in assay [3] stood at 1.61 nM.

B21: MHPD1-A-32 H Fc (Fc fusion)
chain: QVQLVESGGGLVQPGGSLRLSCATSKNRRSIYAMGWFRQAPGKGLEFVAGIGWAYATTYYADSVKGRFTISRDNTKNTLYLQMNSLRAEDTAVYYCAADLDHSGFDYWGQGTLVTVSS
notes: not shown: Fc
In the case of B21, the EC50 in assay [2] is 0.156 nM. In addition, the IC50 in assay [3] came out at 1.72 nM.

B22: MHPD1-A-30 H Fc (Fc fusion)
chain: QVQLVESGGGLVQPGGSLRLSCATSGVRRSIYAMGWFRQAPGKGLEFVAGIGWAYATQYYADSVKGRFTISRDNTKNTLYLQMNSLRAEDTAVYYCAADIDHSGFDYWGQGTLVTVSS
notes: not shown: Fc
Regarding B22, the EC50 in assay [2] worked out at 0.166 nM. In addition, the IC50 in assay [3] was found to be 1.08 nM.
